B1: SH3BP2 peptide 410-425 (SH3 domain-binding protein 2), 16-mer library wild type / TNKS ANK (TNKS 12 ANK repeats, residues 174-649) (parent complex)
chain 1: LPHLQRSPPDGQSFRS
chain 2: TGVPAVSGALRELLEACRNGDVSRVKRLVDAANVNAKDMAGRKSSPLHFAAGFGRKDVVEHLLQMGANVHARDDGGLIPLHNACSFGHAEVVSLLLCQGADPNARDNWNYTPLHEAAIKGKIDVCIVLLQHGADPNIRNTDGKSALDLADPSAKAVLTGEYKKDELLEAARSGNEEKLMALLTPLNVNCHASDGRKSTPLHLAAGYNRVRIVQLLLQHGADVHAKDKGGLVPLHNACSYGHYEVTELLLKHGACVNAMDLWQFTPLHEAASKNRVEVCSLLLSHGADPTLVNCHGKSAVDMAPTPELRERLTYEFKGHSLLQAAREADLAKVKKTLALEIINFKQPQSHETALHCAVASLHPKRKQVTELLLRKGANVNEKNKDFMTPLHVAAERAHNDVMEVLHKHGAKMNALDTLGQTALHRAALAGHLQTCRLLLSYGSDPSIISLQGFTAAQMGNEAVQQILSESTPIRTSD
B2: ATXN2 peptide 913-928 (Ataxin-2), 16-mer library wild type / PABPC1 PABC (PABPC1 PABC domain, residues 544-623) (parent complex)
chain 1: TLNPNAKEFNPRSFSQ
chain 2: PLTASMLASAPPQEQKQMLGERLFPLIQAMHPTLAGKITGMLLEIDNSELLHMLESPESLRSKVDEAVAVLQAHQAKEAA

Variants of: B1
Test: proteomic peptide phage display deep mutational scan (ProP-PD DMS): M13 P8 16-mer library selected against immobilised GST-tagged bait for four days (rounds), NGS of the eluted pools per day and pseudo-replica; bait immobilised on MaxiSorp plates (10 µg), library pre-cleared on GST, 2 h binding at 4 °C, five washes; one round per day, days 1-4; value from days 2 and 3

Variant	screen value
chain 1 D10V	0.00049 average fractional NGS count over selection days 2 and 3 (reads of this peptide / all reads for the bait, averaged over …
chain 1 D10P	0.00059 average fractional NGS count over selection days 2 and 3 (reads of this peptide / all reads for the bait, averaged over …
chain 1 D10A	0.000226 average fractional NGS count over selection days 2 and 3 (reads of this peptide / all reads for the bait, averaged over …
chain 1 L1N	0.0011 average fractional NGS count over selection days 2 and 3 (reads of this peptide / all reads for the bait, averaged over …
chain 1 L1A	0.00143 average fractional NGS count over selection days 2 and 3 (reads of this peptide / all reads for the bait, averaged over …
chain 1 L1I	0.00049 average fractional NGS count over selection days 2 and 3 (reads of this peptide / all reads for the bait, averaged over …
chain 1 L1D	0.00232 average fractional NGS count over selection days 2 and 3 (reads of this peptide / all reads for the bait, averaged over …
chain 1 L1Y	0.00138 average fractional NGS count over selection days 2 and 3 (reads of this peptide / all reads for the bait, averaged over …
chain 1 L1E	0.00294 average fractional NGS count over selection days 2 and 3 (reads of this peptide / all reads for the bait, averaged over …
chain 1 L1K	0.000567 average fractional NGS count over selection days 2 and 3 (reads of this peptide / all reads for the bait, averaged over …
chain 1 L1F	0.000588 average fractional NGS count over selection days 2 and 3 (reads of this peptide / all reads for the bait, averaged over …
chain 1 L1V	0.00338 average fractional NGS count over selection days 2 and 3 (reads of this peptide / all reads for the bait, averaged over …
chain 1 L1S	0.00146 average fractional NGS count over selection days 2 and 3 (reads of this peptide / all reads for the bait, averaged over …
chain 1 L1H	0.00559 average fractional NGS count over selection days 2 and 3 (reads of this peptide / all reads for the bait, averaged over …
chain 1 P8D	0.00888 average fractional NGS count over selection days 2 and 3 (reads of this peptide / all reads for the bait, averaged over …
chain 1 P8S	0.000677 average fractional NGS count over selection days 2 and 3 (reads of this peptide / all reads for the bait, averaged over …
chain 1 P8N	0.0021 average fractional NGS count over selection days 2 and 3 (reads of this peptide / all reads for the bait, averaged over …

Variant	screen value
chain 1 P8T	0.00538 average fractional NGS count over selection days 2 and 3 (reads of this peptide / all reads for the bait, averaged over …
chain 1 P8H	0.000697 average fractional NGS count over selection days 2 and 3 (reads of this peptide / all reads for the bait, averaged over …
chain 1 P8V	0.00324 average fractional NGS count over selection days 2 and 3 (reads of this peptide / all reads for the bait, averaged over …
chain 1 G11N	0.000201 average fractional NGS count over selection days 2 and 3 (reads of this peptide / all reads for the bait, averaged over …
chain 1 F14D	0.000786 average fractional NGS count over selection days 2 and 3 (reads of this peptide / all reads for the bait, averaged over …
chain 1 F14M	0.0018 average fractional NGS count over selection days 2 and 3 (reads of this peptide / all reads for the bait, averaged over …
chain 1 F14G	0.000932 average fractional NGS count over selection days 2 and 3 (reads of this peptide / all reads for the bait, averaged over …
chain 1 F14N	0.000125 average fractional NGS count over selection days 2 and 3 (reads of this peptide / all reads for the bait, averaged over …
chain 1 F14T	0.0022 average fractional NGS count over selection days 2 and 3 (reads of this peptide / all reads for the bait, averaged over …
chain 1 F14A	0.0212 average fractional NGS count over selection days 2 and 3 (reads of this peptide / all reads for the bait, averaged over …
chain 1 F14S	0.00286 average fractional NGS count over selection days 2 and 3 (reads of this peptide / all reads for the bait, averaged over …
chain 1 F14L	0.000394 average fractional NGS count over selection days 2 and 3 (reads of this peptide / all reads for the bait, averaged over …
chain 1 F14H	0.000634 average fractional NGS count over selection days 2 and 3 (reads of this peptide / all reads for the bait, averaged over …
chain 1 F14I	0.00763 average fractional NGS count over selection days 2 and 3 (reads of this peptide / all reads for the bait, averaged over …
chain 1 F14Q	0.000155 average fractional NGS count over selection days 2 and 3 (reads of this peptide / all reads for the bait, averaged over …
chain 1 F14E	0.00017 average fractional NGS count over selection days 2 and 3 (reads of this peptide / all reads for the bait, averaged over …

Variants of: B2
Test: as above

Variant	screen value
chain 1 N5A	0.00056 average fractional NGS count over selection days 2 and 3 (reads of this peptide / all reads for the bait, averaged over …
chain 1 N5D	0.00049 average fractional NGS count over selection days 2 and 3 (reads of this peptide / all reads for the bait, averaged over …
chain 1 E8S	0.00107 average fractional NGS count over selection days 2 and 3 (reads of this peptide / all reads for the bait, averaged over …
chain 1 E8T	0.00103 average fractional NGS count over selection days 2 and 3 (reads of this peptide / all reads for the bait, averaged over …
chain 1 E8M	0.00043 average fractional NGS count over selection days 2 and 3 (reads of this peptide / all reads for the bait, averaged over …
chain 1 E8H	0.00041 average fractional NGS count over selection days 2 and 3 (reads of this peptide / all reads for the bait, averaged over …
chain 1 E8Q	0.000543 average fractional NGS count over selection days 2 and 3 (reads of this peptide / all reads for the bait, averaged over …
chain 1 E8Y	0.000547 average fractional NGS count over selection days 2 and 3 (reads of this peptide / all reads for the bait, averaged over …
chain 1 E8V	0.00108 average fractional NGS count over selection days 2 and 3 (reads of this peptide / all reads for the bait, averaged over …
chain 1 S13G	0.00314 average fractional NGS count over selection days 2 and 3 (reads of this peptide / all reads for the bait, averaged over …
chain 1 S13N	0.00133 average fractional NGS count over selection days 2 and 3 (reads of this peptide / all reads for the bait, averaged over …
chain 1 S13D	0.00111 average fractional NGS count over selection days 2 and 3 (reads of this peptide / all reads for the bait, averaged over …
chain 1 P4H	0.000277 average fractional NGS count over selection days 2 and 3 (reads of this peptide / all reads for the bait, averaged over …
chain 1 P4V	0.00399 average fractional NGS count over selection days 2 and 3 (reads of this peptide / all reads for the bait, averaged over …
chain 1 T1D	0.00327 average fractional NGS count over selection days 2 and 3 (reads of this peptide / all reads for the bait, averaged over …
chain 1 T1I	0.000134 average fractional NGS count over selection days 2 and 3 (reads of this peptide / all reads for the bait, averaged over …
chain 1 T1R	0.00254 average fractional NGS count over selection days 2 and 3 (reads of this peptide / all reads for the bait, averaged over …
chain 1 T1N	0.000793 average fractional NGS count over selection days 2 and 3 (reads of this peptide / all reads for the bait, averaged over …
chain 1 A6S	0.000246 average fractional NGS count over selection days 2 and 3 (reads of this peptide / all reads for the bait, averaged over …
chain 1 F14P	0.00134 average fractional NGS count over selection days 2 and 3 (reads of this peptide / all reads for the bait, averaged over …
chain 1 F14E	0.000387 average fractional NGS count over selection days 2 and 3 (reads of this peptide / all reads for the bait, averaged over …

Variant	screen value
chain 1 N3D	0.00069 average fractional NGS count over selection days 2 and 3 (reads of this peptide / all reads for the bait, averaged over …
chain 1 N3Q	0.00023 average fractional NGS count over selection days 2 and 3 (reads of this peptide / all reads for the bait, averaged over …
chain 1 K7Y	0.0438 average fractional NGS count over selection days 2 and 3 (reads of this peptide / all reads for the bait, averaged over …
chain 1 K7G	0.00102 average fractional NGS count over selection days 2 and 3 (reads of this peptide / all reads for the bait, averaged over …
chain 1 K7W	0.00309 average fractional NGS count over selection days 2 and 3 (reads of this peptide / all reads for the bait, averaged over …
chain 1 N10Q	0.00128 average fractional NGS count over selection days 2 and 3 (reads of this peptide / all reads for the bait, averaged over …
chain 1 N10T	0.00052 average fractional NGS count over selection days 2 and 3 (reads of this peptide / all reads for the bait, averaged over …
chain 1 N10S	0.000422 average fractional NGS count over selection days 2 and 3 (reads of this peptide / all reads for the bait, averaged over …
chain 1 R12I	0.00122 average fractional NGS count over selection days 2 and 3 (reads of this peptide / all reads for the bait, averaged over …
chain 1 R12T	0.00189 average fractional NGS count over selection days 2 and 3 (reads of this peptide / all reads for the bait, averaged over …
chain 1 R12G	0.000653 average fractional NGS count over selection days 2 and 3 (reads of this peptide / all reads for the bait, averaged over …
chain 1 R12V	0.00419 average fractional NGS count over selection days 2 and 3 (reads of this peptide / all reads for the bait, averaged over …
chain 1 R12F	0.000951 average fractional NGS count over selection days 2 and 3 (reads of this peptide / all reads for the bait, averaged over …
chain 1 R12D	0.00156 average fractional NGS count over selection days 2 and 3 (reads of this peptide / all reads for the bait, averaged over …
chain 1 L2F	0.000314 average fractional NGS count over selection days 2 and 3 (reads of this peptide / all reads for the bait, averaged over …
chain 1 P11V	0.00178 average fractional NGS count over selection days 2 and 3 (reads of this peptide / all reads for the bait, averaged over …
chain 1 P11T	0.00444 average fractional NGS count over selection days 2 and 3 (reads of this peptide / all reads for the bait, averaged over …
chain 1 S15R	0.000394 average fractional NGS count over selection days 2 and 3 (reads of this peptide / all reads for the bait, averaged over …
chain 1 S15D	0.000508 average fractional NGS count over selection days 2 and 3 (reads of this peptide / all reads for the bait, averaged over …
chain 1 S15A	0.000937 average fractional NGS count over selection days 2 and 3 (reads of this peptide / all reads for the bait, averaged over …
chain 1 S15Q	0.000598 average fractional NGS count over selection days 2 and 3 (reads of this peptide / all reads for the bait, averaged over …

— publication PMC12102759 (2025)
